Test results published in patent US20220127354A1 (Amgen, published 2022).

T1: ckCDH19(1-43)::FLAG::ckCDH19(44-776) (construct J, Ck EC1-5) (chicken)
T1 construct: the entry holds leader (1-43), FLAG and ckCDH19(44-776); leader left out; also called chicken Cadherin19
T1 chain: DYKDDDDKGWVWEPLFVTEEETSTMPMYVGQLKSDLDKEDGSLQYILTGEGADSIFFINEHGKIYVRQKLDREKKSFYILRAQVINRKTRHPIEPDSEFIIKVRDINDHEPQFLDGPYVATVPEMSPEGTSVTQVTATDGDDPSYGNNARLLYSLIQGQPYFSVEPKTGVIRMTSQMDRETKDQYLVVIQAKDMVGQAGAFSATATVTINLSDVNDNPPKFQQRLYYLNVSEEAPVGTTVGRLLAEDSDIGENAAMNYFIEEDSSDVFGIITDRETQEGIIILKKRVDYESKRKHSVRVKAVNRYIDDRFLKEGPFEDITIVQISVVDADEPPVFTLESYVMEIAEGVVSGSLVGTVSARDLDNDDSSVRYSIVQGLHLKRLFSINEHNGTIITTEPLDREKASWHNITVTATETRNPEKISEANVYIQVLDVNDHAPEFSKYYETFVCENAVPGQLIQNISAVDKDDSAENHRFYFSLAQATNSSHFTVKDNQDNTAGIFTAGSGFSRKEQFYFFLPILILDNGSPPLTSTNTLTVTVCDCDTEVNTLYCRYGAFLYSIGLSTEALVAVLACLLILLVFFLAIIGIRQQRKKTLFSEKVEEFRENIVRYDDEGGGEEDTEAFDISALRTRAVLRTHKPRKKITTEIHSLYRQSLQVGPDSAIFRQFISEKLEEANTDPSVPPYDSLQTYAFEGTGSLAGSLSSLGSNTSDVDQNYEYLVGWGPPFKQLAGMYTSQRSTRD

T2: rhCDH19(1-43)::FLAG::rhCDH19(44-772) (construct P, Rh EC1-5) (rhesus macaque, UniProt Q9H159 44-772 (human entry))
T2 construct: leader (1-43 of the entry) left out; also called rhesus macaque Cadherin19
T2 chain: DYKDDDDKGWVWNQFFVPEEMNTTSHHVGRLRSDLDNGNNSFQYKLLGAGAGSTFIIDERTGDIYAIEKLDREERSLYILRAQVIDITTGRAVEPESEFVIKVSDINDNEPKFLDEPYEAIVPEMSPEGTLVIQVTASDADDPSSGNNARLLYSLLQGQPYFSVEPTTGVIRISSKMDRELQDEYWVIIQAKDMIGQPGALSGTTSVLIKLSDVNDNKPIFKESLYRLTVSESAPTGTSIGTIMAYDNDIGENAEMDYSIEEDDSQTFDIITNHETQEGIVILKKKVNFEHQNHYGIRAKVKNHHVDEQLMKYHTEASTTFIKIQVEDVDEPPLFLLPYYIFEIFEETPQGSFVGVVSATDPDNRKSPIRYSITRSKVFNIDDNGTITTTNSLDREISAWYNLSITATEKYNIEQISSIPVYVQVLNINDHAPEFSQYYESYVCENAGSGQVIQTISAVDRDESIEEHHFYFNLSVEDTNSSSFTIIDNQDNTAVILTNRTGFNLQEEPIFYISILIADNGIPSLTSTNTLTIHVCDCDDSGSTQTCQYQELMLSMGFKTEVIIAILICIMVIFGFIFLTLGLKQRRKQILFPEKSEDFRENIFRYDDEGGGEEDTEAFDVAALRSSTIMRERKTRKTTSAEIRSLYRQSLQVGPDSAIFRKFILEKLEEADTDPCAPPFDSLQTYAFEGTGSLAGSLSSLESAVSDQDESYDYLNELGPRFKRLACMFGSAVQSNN

T3: raCDH19(1-43)::FLAG::raCDH19(44-770) (construct W, Ra EC1-5) (rat)
T3 construct: leader (1-43 of the entry) left out; also called rat Cadherin19
T3 chain: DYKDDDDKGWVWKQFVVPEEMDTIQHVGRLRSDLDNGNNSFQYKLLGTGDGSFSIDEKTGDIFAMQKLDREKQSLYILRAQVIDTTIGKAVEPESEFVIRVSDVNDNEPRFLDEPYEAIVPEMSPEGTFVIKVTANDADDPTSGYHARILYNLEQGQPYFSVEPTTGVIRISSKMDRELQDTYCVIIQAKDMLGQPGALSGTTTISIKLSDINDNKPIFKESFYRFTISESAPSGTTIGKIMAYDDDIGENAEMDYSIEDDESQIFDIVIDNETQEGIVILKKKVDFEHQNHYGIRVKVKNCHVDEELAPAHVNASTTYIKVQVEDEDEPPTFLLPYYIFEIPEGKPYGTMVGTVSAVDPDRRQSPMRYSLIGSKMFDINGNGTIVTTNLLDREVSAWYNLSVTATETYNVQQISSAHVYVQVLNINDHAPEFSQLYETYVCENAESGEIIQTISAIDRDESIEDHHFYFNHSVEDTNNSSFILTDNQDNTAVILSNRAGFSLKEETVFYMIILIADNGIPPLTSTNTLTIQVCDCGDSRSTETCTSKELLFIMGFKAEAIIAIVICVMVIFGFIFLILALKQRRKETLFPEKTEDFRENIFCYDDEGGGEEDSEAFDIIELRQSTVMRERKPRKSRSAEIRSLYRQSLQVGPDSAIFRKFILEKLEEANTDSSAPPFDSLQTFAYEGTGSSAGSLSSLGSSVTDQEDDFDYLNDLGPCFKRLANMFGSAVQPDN


How the values were obtained:
Experiment in all cases: flow cytometry, transfected 293T cells, 2 mM CaCl2
[1] = molecular target: huCDH19(44-772) with Flag tag (construct A, Hu EC1-5) (human, UniProt Q9H159 44-772)
Experimental: (§1) The experiment included assaying a subset of anti-CDH19 antibodies against chicken Cadherin19 to determine suitability for binning on these human/chicken chimeras.
(§2) The following binding assay was completed in presence of 2 mM CaCl₂). […] Cells were then washed one time and the amount of cell associated Alexa647-labelled Ab was quantitated by flow cytometry. The experiments included mock transfected controls.

[2] = molecular target: T1, ckCDH19(1-43)::FLAG::ckCDH19(44-776) …
Experimental: as §1, §2

[3] = molecular target: T2, rhCDH19(1-43)::FLAG::rhCDH19(44-772) …
Experimental: as §2

[4] = molecular target: T3, raCDH19(1-43)::FLAG::raCDH19(44-770) …
Experimental: as §2

Binder	binding result [1]	binding result [2]	binding result [3]	binding result [4]
hu anti-<huCDH19> 4A9 (Ab ID 13589) (antibody, human IgG1, lambda, V domains shown, huIgG1z / huLLC-C1; Bin 1) VH: QVQLQESGPGLVKPSETLSLTCTVSGGSISGYYWSWIRQPPGKGLEWFAYFSYSGSTNYNPSLKSRVTLSVDTSKNQFSLKLSSVTAADTAVYYCARNWAFHFDFWGQGTLVTVSS VL: QSVLTQPPSVSGAPGQRVTISCTGSSSNIGTGYAVHWYQQFPGTAPKLLIYGNNNRPSGVPDRFSGSKSGTSASLAITGLQAEDEADYYCQSYDSRLSGWVFGGGTKLTVLG	binds	no binding (tested: 5 ug/ml)	binds	no binding (tested: 5 ug/ml)
anti-CDH19 antibody 2G6 (Ab ID 13588) (antibody, human IgG1, lambda, V domains shown, Bin 4) VH: QVQLVESGGGVVQPGRSLRLSCAASGFTFSSYGMHWVRQAPGKGLEWVAFIWYDGSNKYYADSVKDRFTISRDNSKNTLYLQMKSLRAEDTAVYYCARRAGIIGTIGYYYGMDVWGQGTTVTVSS VL: SYELTQPPSVSVSPGQTASITCSGDRLGEKYTCWYQQRPGQSPLLVIYQDTKRPSGIPERFSGSNSGNTATLTISGTQAMDEADYYCQAWDSSTVVFGGGTKLTVLG	binds	no binding (tested: 5 ug/ml)	binds	binds
hu anti-<huCDH19> 23A10.3 (1-474)(L92Q) VH::huIgG1z + 23A10.3 (1-231)(C42S) VL::huLLC-C2 (Ab ID 14077) (antibody, V domains shown, Engineered variant of 23A10; the entries already carry the changes; Bin 4) VH: QVQLVESGGGVVQPGRSLRLSCAASGFTFSRYGIHWVRQAPGKGLEWVAVIWYDGSNKYYADSVKGRFTISRDNSKNTLYLQMNSLRAEDSAVYYCARRAGIPGTTGYYYGMDVWGQGTTVTVSS VL: SYELTQPPSVSVSPGQTASITCSGDRLGEKYVSWYQQKPGQSPILVIYQDNKWPSGIPERFSGSNSGNTATLTISGTQAMDEADYYCQAWDSSTVVFGGGTKLTVLG	binds	no binding (tested: 5 ug/ml)	binds	binds
hu anti-<huCDH19> 4B10 (Ab ID 13590) (antibody, V domains shown, huIgG1z / huKLC; Bin 4) VH: QVQLVESGGGVVQPGRSLRLSCAASGFTFSSYDMHWVRQAPGKGLEWVAVISYDGTNEYYADSVKGRFTISRDTSKNTLYLQMNSLRAEDTAVYYCARERYFDWSFDYWGQGTLVSVSS VL: EIVLTQSPGTLSLSPGERATLSCRASQSVSNTYLAWYHQRPGQAPRLLIYGASSRATGIPDRFSGSGSGTDFALTISSLEPEDFAVYYCQQYSNSWTFGQGTKVEIKR	binds	no binding (tested: 5 ug/ml)	binds	binds
hu anti-<huCDH19> 26D1.1 (Ab ID 13882) (antibody, human IgG1, lambda, V domains shown, huIgG1z / huLLC-C2; Bin 2) VH: QVQLVQSGAEVKKPGASVKVSCKASRYTFTSYYMSWVRQAPGQGLEWMGIIHPSGGDTTYAQKFQGRVTMTGDTSTSTVYMELSSLRSEDTAVYYCARGGIKLWLHFDYWGQGTLVTVSS VL: not shown	binds	no binding (tested: 5 ug/ml)	binds	no binding (tested: 5 ug/ml)

Next, values leading:

binding result [1]	binding result [2]	binding result [3]	binding result [4]	Binder
	no binding (tested: 5 ug/ml)	binds		anti-CDH19 antibody 4A2 (Ab ID 13592) (antibody, human IgG1, kappa, V domains shown, Bin 4) VH: QVQLQESGPGLVKPSQTLSLTCTVSGGSISSSGYYWSWIRQHPGKGLEWIGYIYYTGSAYYNPSLKSRVTISVDTSKNQFSLKLSSVTAADTAVYYCARDGSSGWYFQYWGQGTLVTVSS VL: EIVLTQSPGTLSLSPGERATLSCRASRNISSSYLAWYQQKPGQAPRLLIYGPSSRATGIPDRFSGSGSGTDFTLTISRLEPEDFTVYYCQQYGSSFTFGPGTKVDIKR
binds	no binding (tested: 5 ug/ml)	binds	no binding (tested: 5 ug/ml)	hu anti-<huCDH19> 25F8.1 (1-469)(F90Y) VH::huIgG1z + 25F8.1 (1-235)(K45Q,S102A,D111E) VL::huLLC-C2 (Ab ID 14096) (antibody, V domains shown, Engineered variant of 25F8; the entries already carry the changes; Bin 2) VH: QVQLVQSGAEVKKPGASVKVSCKASGYTFTSYYIHWVRQAPGQGLEWMGIINPSGGSTRYAQKFQGRVTMTRDTSTSTVYMELSSLRSEDTAVYYCARGGIQLWLHFDYWGQGTLVTVSS VL: not shown
